Biological target: T1, mouse serum albumin (mouse, UniProt P07724 25-608)
T1 construct: also called Mouse albumin
Test: SPR Biacore 3000; mouse albumin against human/rhesus albumin as reference

T1 sequence (P07724 25-608 limits assumed): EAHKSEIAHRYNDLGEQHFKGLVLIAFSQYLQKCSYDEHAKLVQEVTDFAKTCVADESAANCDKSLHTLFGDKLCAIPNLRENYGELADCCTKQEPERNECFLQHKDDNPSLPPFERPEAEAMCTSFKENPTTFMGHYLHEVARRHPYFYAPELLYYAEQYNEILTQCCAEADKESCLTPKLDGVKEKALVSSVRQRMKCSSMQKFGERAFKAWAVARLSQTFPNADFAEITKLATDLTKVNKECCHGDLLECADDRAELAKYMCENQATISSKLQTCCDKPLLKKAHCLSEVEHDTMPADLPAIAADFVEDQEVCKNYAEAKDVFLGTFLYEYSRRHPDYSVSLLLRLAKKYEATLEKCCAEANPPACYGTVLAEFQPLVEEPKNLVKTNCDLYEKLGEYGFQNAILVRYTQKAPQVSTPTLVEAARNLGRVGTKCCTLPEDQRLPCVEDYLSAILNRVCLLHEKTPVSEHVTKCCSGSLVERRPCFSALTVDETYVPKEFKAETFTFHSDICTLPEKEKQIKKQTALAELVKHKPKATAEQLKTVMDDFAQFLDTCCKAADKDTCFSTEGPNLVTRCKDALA

factor of difference in affinity for human/rhesus versus mouse serum albumin: 400 fold
B1: PMP6A8 (ALB2) (VHH)
VHH: AVQLVESGGGLVQGGGSLRLACAASERIFDLNLMGWYRQGPGNERELVATCITVGDSTNYADSVKGRFTISMDYTKQTVYLHMNSLRPEDTGLYYCKIRRTWHSELWGQGTQVTVSS
